{
  "source": "paper PMC2447227",
  "about": "“The Interaction Between Endopolygalacturonase From Fusarium Moniliforme and PGIP from Phaseolus Vulgaris Studied by Surface Plasmon Resonance and Mass Spectrometry” (Comparative and Functional Genomics, 2001)",
  "key": {"[1]": {"molecular_target": "T1, endopolygalacturonase from Fusarium moniliforme deglycosylated with endo-H (Fusarium moniliforme, UniProt Q07181 25-373, a single GlcNAc residue at each of the four N-glycosylation sites (observed mass 37110 Da against 36198 Da calculated for the polypeptide))", "T1 construct": "endopolygalacturonase (PG), Fusarium moniliforme; the same polypeptide as m2, glycans trimmed by endo-H; calculated mass of the polypeptide 36198 Da; also called PG + EndoH; deglycosylated FmPG; source: expressed in Saccharomyces cerevisiae, purified, deglycosylated with endo-H", "T1 sequence": "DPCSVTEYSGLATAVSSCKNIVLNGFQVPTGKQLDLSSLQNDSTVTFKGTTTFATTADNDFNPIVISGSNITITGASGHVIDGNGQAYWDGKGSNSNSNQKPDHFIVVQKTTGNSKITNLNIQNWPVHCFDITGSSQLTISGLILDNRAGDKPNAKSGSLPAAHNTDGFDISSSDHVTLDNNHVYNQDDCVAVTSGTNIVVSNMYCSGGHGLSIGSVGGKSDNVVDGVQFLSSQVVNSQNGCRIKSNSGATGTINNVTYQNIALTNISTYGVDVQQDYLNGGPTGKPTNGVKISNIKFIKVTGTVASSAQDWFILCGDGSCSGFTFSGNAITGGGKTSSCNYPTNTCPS", "assay": "SPR; PGIP-2 immobilised by amine coupling on a CM5 chip (4000-5000 RU), BIACORE X; PG solutions in 25 mM ammonium acetate buffer pH 5.0 injected at 5 ul/min; buffer-treated reference flow-cell; bound deglycosylated enzyme eluted with NH4HCO3 pH 8 and analysed by MALDI-TOF MS", "details": "both partners purified"}, "[2]": {"molecular_target": "T2, endopolygalacturonase from Fusarium moniliforme, native (glycosylated) enzyme expressed in Saccharomyces … (Fusarium moniliforme, UniProt Q07181 25-373, N-linked high-mannose type glycans (up to 14 Man residues in the chain at Asn65); four potential N-glycosylation sites; glycoforms of 43, 46 and 50 kDa)", "T2 construct": "endopolygalacturonase (PG), Fusarium moniliforme; calculated mass of the polypeptide 36198 Da (36.2 kDa); also called FmPG; PG; source: expressed in Saccharomyces cerevisiae, purified", "T2 sequence": "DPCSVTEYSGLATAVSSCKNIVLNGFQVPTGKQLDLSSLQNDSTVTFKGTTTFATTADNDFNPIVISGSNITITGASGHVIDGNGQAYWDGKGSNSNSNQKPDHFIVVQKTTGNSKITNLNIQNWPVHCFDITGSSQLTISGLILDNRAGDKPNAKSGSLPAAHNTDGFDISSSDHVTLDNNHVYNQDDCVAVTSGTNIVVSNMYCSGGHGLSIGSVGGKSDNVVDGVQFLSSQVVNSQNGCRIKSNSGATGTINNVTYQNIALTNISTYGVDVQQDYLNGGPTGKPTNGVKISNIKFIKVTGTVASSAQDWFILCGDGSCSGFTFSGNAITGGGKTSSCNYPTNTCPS", "assay": "SPR; PGIP-2 immobilised by amine coupling on a CM5 chip (4000-5000 RU), BIACORE X; PG solutions in 25 mM ammonium acetate buffer pH 5.0 injected at 5 ul/min; buffer-treated reference flow-cell; bound deglycosylated enzyme eluted with NH4HCO3 pH 8 and analysed by MALDI-TOF MS", "details": "both partners purified"}},
  "data": [
    {"binder": "polygalacturonase-inhibiting protein PGIP-2 of Phaseolus vulgaris (natural protein, UniProt P58822 30-342, looked up, a leucine-rich repeat protein; also called bean PGIP-2; source: Nicotiana benthamiana plants infected with PVX, purified) ELCNPQDKQALLQIKKDLGNPTTLSSWLPTTDCCNRTWLGVLCDTDTQTYRVNNLDLSGLNLPKPYPIPSSLANLPYLNFLYIGGINNLVGPIPPAIAKLTQLHYLYITHTNVSGAIPDFLSQIKTLVTLDFSYNALSGTLPPSISSLPNLVGITFDGNRISGAIPDSYGSFSKLFTSMTISRNRLTGKIPPTFANLNLAFVDLSRNMLEGDASVLFGSDKNTQKIHLAKNSLAFDLGKVGLSKNLNGLDLRNNRIYGTLPQGLTQLKFLHSLNVSFNNLCGEIPQGGNLQRFDVSAYANNKCLCGSPLPACT", "values": [
      {"measurement": "binding result", "setting": "[1]", "result": "binds"},
      {"measurement": "binding result", "setting": "[2]", "result": "binds"}
    ]}
  ]
}
